Measurements from patent US20190351049A1 (Regeneron, published 2019).
Where two headings read alike, the source gives them in different places.

Legend:
[1] = biological target: T1, MERS-CoV spike protein (EMC/2012), wt (MERS-CoV (isolate EMC/2012), UniProt K9N5Q8 18-1353); experiment: cell-based or functional assay
[2] = biological target: T1, MERS-CoV spike protein (EMC/2012), wt; experiment: cell-based or functional assay; remark: listed apart in the source
MERS-RBD-mFc = MERS-RBD-mFc (MERS-CoV (isolate EMC/2012), UniProt K9N5Q8 367-606); experiment: Octet BLI, MERS.mFc captured on the sensor, then mAb-1 applied
[3] = biological target: T1, MERS-CoV spike protein (EMC/2012), wt; experiment: cell-based or functional assay; remark: listed apart in the source

B1: H2aM15271N (antibody, V domains shown)
VH: EVQLVESGGALVQPGGSLRLSCAASGFIFGSYEMNWVRQAPGKGLEWLSYISSSGSTIYYADSVKGRFTISRDNAKNSLYLQMNSLRAEDTAVYYCARERGQLGRGGYYYYGMDVWGQGTTVTVSS
VL: EIVLTRSPGTLSLSPGERATLSCRASQSVSSSYLAWYHQKPGQAPRLLMYGTSIRATGIPDRFSGSGSGTDFTLTISRLEPEDFAVYYCQQYGSSPPWTFGQGTKVEIK
- IC50 against MERSpp [1]: 0.127 nM
- IC50 against live virus (EMC2012) [1]: 1.03 nM
- % Neutralization (.025 µg/ml), MERSpp infectivity [2]: 97%
- Neutralization IC50 (M), MERSpp infectivity [2]: 2.74e-10 M

B2: H1M15289N (antibody, V domains shown)
VH: QVQLQESGPGLVKPSETLSLTCTVSGGSISSYYWSWIRQPPGKGLEWIGYIYYSGSANYNPSLKSRVTISVDTSKNQFSLKLSSVTAADTAVYYCVRDRDLLLDHWGQGTLVTVSS
VL: EIVMTQSPATLSVSPGKRATLSCRASQSVSSNLAWYQQKPGQAPRLLIYGASTRTTGFPARFSGSGSGTDFTLTISSLQSEDFAVYYCQQYNNWPYTFGQGTMLEIK
- IC50 against MERSpp [1]: 0.281 nM
- IC50 against live virus (EMC2012) [1]: 3.15 nM
- % Neutralization (.025 µg/ml), MERSpp infectivity [2]: 89%
- Neutralization IC50 (M), MERSpp infectivity [2]: 4.25e-10 M

B3: H1H15203P (antibody, V domains shown)
VH: EVQLVESGGDLVQPGGSLRVSCAASGFTFSNYDMYWVRQAPGKGLEWVSVISGIGATTYYADSVKGRFTISRDNSKNTVFLQMNSLRAEDTAVYYCVKGGPIVATDYWGQGTLVTVSS
VL: not shown
- mAb-1 Binding (nm) (MERS-RBD-mFc): 0.51 nm
- IC50 against MERSpp [3]: 0.0765 nM
- IC50 against live virus (EMC2012) [3]: 0.826 nM

B4: H1H15177P (antibody, V domains shown)
VH: EVQLVESGGGLVQPGGSLRLSCSASGFTFSSYDMSWVRQAPGKGLEWVSAIRGSGHTTYYADSVKGRFTISRDNSKNTLYLEMNSLRAEDTAVYYCVKDGSIVGFDPWGQGTLVTVSS
VL: not shown
- mAb-1 Binding (nm) (MERS-RBD-mFc): 0.6 nm
- IC50 against MERSpp [3]: 0.0457 nM
- IC50 against live virus (EMC2012) [3]: 0.629 nM

B5: H2aM15279N (antibody, V domains shown)
VH: EVQLLESGGGLVQTGGSLRLSCAASGFTFSNYAMSWVRQAPGKGLEWVSAISDRGGSIYYADSVKGRFTISRDNSKNTKYLQMDSLRAEDTAVYYCAQDRGFGVFDYWGQGTLVTVSS
VL: DIQMTQSPSSLSASVGDRVTITCQASQDIGNYLNWFQQRPGKAPNLLIYGASNLETGVPSRFSGGGSGTDFTFTISSLQPEDIATYFCQQYDNLPFTFGPGTKVEIK
- IC50 against MERSpp [1]: 0.0939 nM
- IC50 against live virus (EMC2012) [1]: 0.825 nM
- % Neutralization (.025 µg/ml), MERSpp infectivity [2]: 97%
- Neutralization IC50 (M), MERSpp infectivity [2]: 1.38e-10 M

B6: H2bM15291N (antibody, V domains shown)
VH: QVQLVQSGAEVKKPGSSVKVSCKASGDTFSTYAVSWVRQAPGQGLEWMGGIIPFFGTSNYAQKFQGRVTITTDESTTTAYMELNSLRSEDTAVYYCAREITMVRGLTNYHFYGMDVWGQGTTVTVSS
VL: not shown
- IC50 against MERSpp [1]: 0.186 nM
- IC50 against live virus (EMC2012) [1]: 2.22 nM
- % Neutralization (.025 µg/ml), MERSpp infectivity [2]: 90%
- Neutralization IC50 (M), MERSpp infectivity [2]: 3.05e-10 M

B7: H2aM15287N (antibody, V domains shown)
VH: QLQLQESGPGLVKPSETLSLTCTVSGGSISSGNYYWGWIRQPPGKGLEWFGTIYYSGSTYYNPSLKSRVTISVDTSKNQFSLKLSSVTAADTAVYYCARRAAVGHFDYWGQGTLVTVSS
VL: DIQMTQSPSTLSASVGDRVTITCRASQSISTWLAWYQQKPGKAPKLLIYEASSLESGVPSRFSGSGFGTEFTLTISRLQPDDFATYFCQQYNTYWTFGQGTKVEIK
- IC50 against MERSpp [1]: 2.93 nM
- IC50 against live virus (EMC2012) [1]: 8.92 nM
- % Neutralization (.025 µg/ml), MERSpp infectivity [2]: 5%
- Neutralization IC50 (M), MERSpp infectivity [2]: 3.59e-09 M

B8: H1M15280N (antibody, V domains shown)
VH: EVQLLESGGGLVQPGGSLRLSCAASGFTFSSYAMSWVRQAPGKGLEWVSAISGSGSSTYYADSVKGRFTISRDNSKNTLFLQMNSLRAEDTAVYYCAEGGDVDFDYWGQGTLVTVSS
VL: not shown
- IC50 against MERSpp [1]: 0.111 nM
- IC50 against live virus (EMC2012) [1]: 0.763 nM
- % Neutralization (.025 µg/ml), MERSpp infectivity [2]: 97%
- Neutralization IC50 (M), MERSpp infectivity [2]: 1.76e-10 M

B9: H1H15211P (antibody, V domains shown)
VH: EVQLVESGGGLVQPGGSLRLSCVVSGFTFSNYDMSWVRQAPGRGLEWVSAIRGSGFNTYYADSVKGRFTISRDNSKNTLYLQMNSLRAEDTAVYYCAKDGSIVSMDYWGQGTLVTVSS
VL: not shown
- mAb-1 Binding (nm) (MERS-RBD-mFc): 0.76 nm
- IC50 against MERSpp [3]: 0.0474 nM
- IC50 against live virus (EMC2012) [3]: 0.369 nM

B10: H1M15267N (antibody, V domains shown)
VH: QVQLQESGPGLVKPSETLSLTCTVSGGSISSYYWSWIRQPPGKGLEWIGYIYYSGSPNYNPSLKSRVTISVDTSKNQFSLKLTSVTAADTAVYYCARSLNWGPPFDYWGQGTLVTVSS
VL: not shown
- IC50 against MERSpp [1]: 0.0998 nM
- IC50 against live virus (EMC2012) [1]: 0.891 nM
- % Neutralization (.025 µg/ml), MERSpp infectivity [2]: 99%
- Neutralization IC50 (M), MERSpp infectivity [2]: 1.49e-10 M

B11: H1M15290N (antibody, V domains shown)
VH: QVQLVQSGAEVKKPGSSVKVSCKASGGTFSTYAISWVRQAPGQGLEWMGGIIPFFGTANYAQKFQGRVTITTDESTSTAYMELSSLRSEDTAVYYCAREGTYYDSLTGYYTHYYRMDVWGQGTTVTVSS
VL: not shown
- IC50 against MERSpp [1]: 0.21 nM
- IC50 against live virus (EMC2012) [1]: 2.55 nM
- % Neutralization (.025 µg/ml), MERSpp infectivity [2]: 83%
- Neutralization IC50 (M), MERSpp infectivity [2]: 5.84e-10 M

B12: H2bM15292N (antibody, V domains shown)
VH: QVQLVQSGAEVKKPGSSVKVSCKASGGTFNNYAISWVRQAPGQGLEWMGGIIPFFGTTNYAQKFQDRVTITSDDSTITAYMELSRLRSEDTAVYYCARDEPRRDGYNYYHYYYMDVWGQGTTVTVSS
VL: DIQMTQSPSSLSASVGDRVTITCRASQSINSYLNWYQQKPGKAPNLLIYAASSLQSGVPSRFSGSGSGTDFTLTISSLHPEDFATYYCQQSYSTPPITFGQGTRLEIK
- IC50 against MERSpp [1]: 0.113 nM
- IC50 against live virus (EMC2012) [1]: 2.26 nM
- % Neutralization (.025 µg/ml), MERSpp infectivity [2]: 91%
- Neutralization IC50 (M), MERSpp infectivity [2]: 3.57e-10 M

B13: H2aM15270N (antibody, V domains shown)
VH: EVQLLESGGGLEQPGGSLRLSCAASGFTFSSYAMIWVRQAPGKGLEWVSTISGSGVNTYYADSVKGRFTISRDNSKNTLHLQMNSLRAEDTAVYHCAKEGLDCANGVCYNYYGMDVWGQGTTVTVSS
VL: DIQMTQSPSSLSASVGDRVTITCRASQSINSFLNWYHQKPGKAPKFLIYSASNLQSGVPSRFSGSGSGTDFTLTISSLQPEDFSTYYCQQSYSIPLTFGGGTKVEIK
- IC50 against MERSpp [1]: 0.102 nM
- IC50 against live virus (EMC2012) [1]: 0.711 nM
- % Neutralization (.025 µg/ml), MERSpp infectivity [2]: 98%
- Neutralization IC50 (M), MERSpp infectivity [2]: 3.25e-10 M

B14: H1M15293N (antibody, V domains shown)
VH: QVQLVQSGAEVKKPGSSVKVSCKVSGVTFSSYAISWVRQAPGQGLEWMGGIIPFFGTASYAQKFQGRVTVTTDESTSTAYMEVSSLRSEDTAVYYCARDNPELTKEGYYHYYAMDVWGQGTTVTVSS
VL: not shown
- IC50 against MERSpp [1]: 0.258 nM
- IC50 against live virus (EMC2012) [1]: 2.58 nM
- % Neutralization (.025 µg/ml), MERSpp infectivity [2]: 86%
- Neutralization IC50 (M), MERSpp infectivity [2]: 4.36e-10 M

B15: H1M15269N (antibody, V domains shown)
VH: EVQLLESGGGLVQPGGSLRLSCPASGFTFSNYAMTWVRQAPGKGLEWVSAISGSGATTKYADSVKGRFTISRDNSRNTLYLQMNSLRAEDTAVYYCAKGGSGSYFPYYYYGLDVWGQGTTVTVSS
VL: EIVMTQSPATLSVSPGDSATLSCRASQTVSSNLAWYQQKPGQAPRLLIYGASTRATGIPARFSGSGSGTEFTLTISSLQSEDFAVYYCQQYYNWWTFGQGTKVEIK
- IC50 against MERSpp [1]: 0.688 nM
- IC50 against live virus (EMC2012) [1]: 6.8 nM
- % Neutralization (.025 µg/ml), MERSpp infectivity [2]: 40%
- Neutralization IC50 (M), MERSpp infectivity [2]: 1.02e-09 M

B16: H1H15188P (antibody, V domains shown)
VH: QVQLVQSGAEVKKPGSSVKVSCKASGGSFSVYAISWVRQAPGQGLEWMGGIIPIFGTANYAQKFQDRFTITTDESTSTAYMELSSLRSEDTAMYYCAREGDIVVLPAGKGGMDVWGQGTTVTVSS
VL: DIVMTQSPLSLPVTPGEPASISCRSSQSLLHGNGYNYLDWYLQKPGQSPQLLIYLVSHRASGVPDRFSGSGSGTDFTLKISRVEAEDVGVYYCMQALQSPWTFGQGTKVEIK
- mAb-1 Binding (nm) (MERS-RBD-mFc): 0.54 nm
- IC50 against MERSpp [3]: 0.062 nM
- IC50 against live virus (EMC2012) [3]: 0.505 nM

B17: H1M15277N (antibody, V domains shown)
V domain 1: EVQLLESGGGLVQPGGSLRLSCAASGFTFSSYAMSWVRQAPGKGLEWVSAISGRGGNTYYADSVKGRFTISRDNSKNTLFLQMNTLRAEDTAVYYCAKDRGFGFFDIWGRGTLATVSS
V domain 2: not shown
- IC50 against MERSpp [1]: 0.0646 nM
- IC50 against live virus (EMC2012) [1]: 0.287 nM
- % Neutralization (.025 µg/ml), MERSpp infectivity [2]: 99%
- Neutralization IC50 (M), MERSpp infectivity [2]: 1.33e-10 M

B18: H2aM15281N (antibody, V domains shown)
VH: QVQLVQSGAEVKKPGSSVKVSCKASKDTFSSYAISWVRQAPGQGLEWMGGIIPFFGTTTYEQKFQGRVTITTDESTRTAYMELSSLRSEDSAVYYCARDRPCISSAGTRYHYCVMDVWGQGTTVTVSS
VL: not shown
- IC50 against MERSpp [1]: 0.0785 nM
- IC50 against live virus (EMC2012) [1]: 0.292 nM
- % Neutralization (.025 µg/ml), MERSpp infectivity [2]: 98%
- Neutralization IC50 (M), MERSpp infectivity [2]: 4.64e-10 M

B19: H2aM15272N (antibody, V domains shown)
VH: QVRLVQSGAEVKKPGSSVKVSCKASGDTFSSYAISWVRQAPGQGLEWMGGIIPFFVTTTYAQNFQGRVTITTDESTRTAYMELSSLRSEDSAVYYCARDRPCISSAGTRYHYCVMDVWGQGTTVTVSS
VL: not shown
- IC50 against MERSpp [1]: 0.0723 nM
- IC50 against live virus (EMC2012) [1]: 0.569 nM
- % Neutralization (.025 µg/ml), MERSpp infectivity [2]: 97%
- Neutralization IC50 (M), MERSpp infectivity [2]: 2.21e-10 M

B20: H2aM15278N (antibody, V domains shown)
VH: QVQLVQSGAEVKKPGASVKVSCKASGYTFTSHGISWVRQAPGQGFEWMGWIGTYNSNTDYAQNFQGRVTMTTDTSTSTAYMELRNLRSDDTAVYYCARERGPYYGMDVWGQGTTVTVSS
VL: EIVLAQSPGTLSLSPGERATLSCRASQSVNSNYLAWYQQKPGQAPRLLIYGASSRATGIPDRFSGSGSGTDFTLTISRLEPEDFAVYYCQQYGNSLTFGPGTKVDFK
- IC50 against MERSpp [1]: 0.142 nM
- IC50 against live virus (EMC2012) [1]: 0.644 nM
- % Neutralization (.025 µg/ml), MERSpp infectivity [2]: 98%
- Neutralization IC50 (M), MERSpp infectivity [2]: 2.11e-10 M
